The record followed here is PMC4764120, “Crystal Structure of Alcohol Oxidase from Pichia pastoris” (PLoS ONE, 2016).

This series deals with the molecule itself. The experiment in a line: crystal structure; X-ray, 2.35 Å, space group P21, eight monomers in the asymmetric unit; crystals grown at 4°C in 100 mM HEPES pH 7.5, 200 mM CaCl2, 33.3% PEG 400; interfaces analysed with PISA.

B1: alcohol oxidase AOX1 from Pichia pastoris (enzyme, UniProt P04842 1-663, looked up)
chain: MAIPEEFDILVLGGGSSGSCIAGRLANLDHSLKVGLIEAGENNLNNPWVYLPGIYPRNMKLDSKTASFYTSNPSPHLNGRRAIVPCANVLGGGSSINFMMYTRGSASDYDDFQAEGWKTKDLLPLMKKTETYQRACNNPDIHGFEGPIKVSFGNYTYPVCQDFLRASESQGIPYVDDLEDLVTAHGAEHWLKWINRDTGRRSDSAHAFVHSTMRNHDNLYLICNTKVDKIIVEDGRAAAVRTVPSKPLNPKKPSHKIYRARKQIVLSCGTISSPLVLQRSGFGDPIKLRAAGVKPLVNLPGVGRNFQDHYCFFSPYRIKPQYESFDDFVRGDAEIQKRVFDQWYANGTGPLATNGIEAGVKIRPTPEELSQMDESFQEGYREYFEDKPDKPVMHYSIIAGFFGDHTKIPPGKYMTMFHFLEYPFSRGSIHITSPDPYAAPDFDPGFMNDERDMAPMVWAYKKSRETARRMDHFAGEVTSHHPLFPYSSEARALEMDLETSNAYGGPLNLSAGLAHGSWTQPLKKPTAKNEGHVTSNQVELHPDIEYDEEDDKAIENYIREHTETTWHCLGTCSIGPREGSKIVKWGGVLDHRSNVYGVKGLKVGDLSVCPDNVGCNTYTTALLIGEKTATLVGEDLGYSGEALDMTVPQFKLGTYEKTGLARF
notes: Alcohol oxidase AOX1, Pichia pastoris, UniProt P04842, 663 residues as printed; identified by mass spectrometry as the host's own protein; the final crystallographic model holds residues 2 to 663 of each monomer; No tag: the protein comes from the expression host itself; also called methanol oxidase AOX1
As to B1, the “stoichiometry N” value came out at 8.

The term stoichiometry N denotes a count of units in the complex or per binding partner.
